Results taken from patent US20220119552A1.

Columns and labels:
[1] = molecular target: CD3 on human T cells (human) (UniProt P07766); assay: flow cytometry on T cells coated with 1 µg/mL antibody
[2] = molecular target: Carcinoembryonic antigen (CEA) on CEA positive cells (UniProt P06731); assay: cell-based or functional assay
Sequence of UniProt P06731 (P06731 35-702): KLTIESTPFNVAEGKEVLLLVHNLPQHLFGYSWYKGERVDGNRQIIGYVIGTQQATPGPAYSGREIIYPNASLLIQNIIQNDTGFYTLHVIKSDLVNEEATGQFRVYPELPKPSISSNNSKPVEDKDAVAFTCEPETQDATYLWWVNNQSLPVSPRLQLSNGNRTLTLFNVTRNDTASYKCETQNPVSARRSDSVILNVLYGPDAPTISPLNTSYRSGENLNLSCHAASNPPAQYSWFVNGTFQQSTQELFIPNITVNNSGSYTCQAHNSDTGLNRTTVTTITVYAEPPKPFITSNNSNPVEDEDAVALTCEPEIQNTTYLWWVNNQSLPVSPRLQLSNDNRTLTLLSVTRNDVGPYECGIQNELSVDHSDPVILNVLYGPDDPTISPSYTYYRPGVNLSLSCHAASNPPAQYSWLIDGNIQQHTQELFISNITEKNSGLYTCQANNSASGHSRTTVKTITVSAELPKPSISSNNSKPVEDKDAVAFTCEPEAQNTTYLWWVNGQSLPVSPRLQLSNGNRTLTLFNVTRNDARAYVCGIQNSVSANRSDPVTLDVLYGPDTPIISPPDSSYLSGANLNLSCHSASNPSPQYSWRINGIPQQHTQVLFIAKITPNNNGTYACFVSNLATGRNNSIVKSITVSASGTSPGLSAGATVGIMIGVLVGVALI

Sequence of UniProt P07766 (P07766 23-207, chain 1 of 3): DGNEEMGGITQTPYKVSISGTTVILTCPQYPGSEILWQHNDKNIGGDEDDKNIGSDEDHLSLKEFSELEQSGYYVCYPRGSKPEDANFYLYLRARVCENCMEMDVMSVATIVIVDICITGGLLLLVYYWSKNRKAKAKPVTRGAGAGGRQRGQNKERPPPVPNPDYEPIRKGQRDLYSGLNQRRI
Sequence of UniProt P07766 (P04234 22-171, chain 2 of 3, further chain): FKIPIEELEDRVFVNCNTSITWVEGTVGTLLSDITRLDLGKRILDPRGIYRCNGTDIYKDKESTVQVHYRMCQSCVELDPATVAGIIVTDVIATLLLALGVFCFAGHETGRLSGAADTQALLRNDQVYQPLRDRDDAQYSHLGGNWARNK
Sequence of UniProt P07766 (P09693 23-182, chain 3 of 3, further chain): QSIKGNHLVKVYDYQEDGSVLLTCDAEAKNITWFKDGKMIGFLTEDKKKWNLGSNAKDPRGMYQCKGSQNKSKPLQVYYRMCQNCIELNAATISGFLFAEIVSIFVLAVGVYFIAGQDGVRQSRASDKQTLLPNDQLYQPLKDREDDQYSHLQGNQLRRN

percent of cells labelled [1] [%]	redirected cell lysis, T-cells coated with preformed dbBiTEs, E:T 10:1 [2] [%]	redirected cell lysis, on-cell (in situ) generated dbBiTE coated T-cells, E:T 10:1 [2] [%]	Substance
> 90			DBCO-hOKT3 (humanized anti-human CD3 antibody hOKT3 conjugated to DBCO)
	90	60	dbBiTE (dual specific bivalent bispecific T-cell engaging antibody: DBCO-hOKT3 clicked to azide-M5A) (bispecific antibody)
